# Experimental data published in PMC8138767, “Intrinsically disordered substrates dictate SPOP subnuclear localization and ubiquitination activity” (The Journal of Biological Chemistry, 2021).
# Where “and” joins values, the source holds several entries; their conditions need not be identical. Equal values may be shown once. Where no end group is shown, it is not given here.
# B1: Puc peptide (residues 91-106), unlabeled (peptide)
# peptide: ENLACDEVTSTTSSST
# notes: puckered protein (Puc), residues 91-106; also called dark Puc peptide; unlabeled Puc peptide; source: synthetic peptide (Tufts University Core Facility, HPLC purified)
# B2: Pdx1-C (C-terminal intrinsically disordered region of human Pdx1) (domain or fragment)
# chain: GPGWEDKKRGGGTAVGGGGVAEPEQDCAVTSGEELLALPPPPPPGGAVPPAAPVAAREGRLPPGLSASPQPSSVAPRRPQEPR
# notes: N-terminal Gly-Pro-Gly cloning artefact left after 3C protease; pancreatic and duodenal homeobox 1 (Pdx1), human, amino acids 205-283 by the methods; the exogenous tryptophan may be what is counted as residue 204 (surmise); also called 13C,15N-Pdx1-C; source: E. coli BL-21(DE3), purified (Ni-NTA, 3C protease, second Ni-NTA, heat, anion exchange flow-through); not shown: GST, N-terminal, cleaved; …
# B3: Pdx1-C: recombinant human Pdx1 C-terminal intrinsically disordered region (residues 204–283) (protein)
# chain: B2 chain
# modifications: left off: GST, N-terminal, cleaved | His6, N-terminal, cleaved
# B4: Pdx1-C (C-terminal intrinsically disordered region of human Pdx1) (domain or fragment)
# chain: B2 chain
# notes: N-terminal Gly–Pro–Gly cloning artifact left after 3C protease; pancreatic and duodenal homeobox 1 (Pdx1), human, amino acids 205-283 (methods); The results' 204–283 may count the added tryptophan as position 204; 13C,15N enriched for NMR; also called ^13C, ^15N-Pdx1-C; Pdx1 C terminus; source: E. coli BL-21(DE3), purified (Ni-NTA, 3C protease, second Ni-NTA, heat, anion exchange flow-through); …
# B5: Pdx1–SBM1f peptide (Pdx1 residues 224–234) (peptide)
# peptide: EQDCAVTSGEE
# notes: human Pdx1 residues 224-234, shorter SBM1 peptide used for fluorescence anisotropy; source: synthetic peptide (Tufts University Core Facility, HPLC purified)
# Tests used:
# [1] = target: T1, SPOP–MATH (residues 28–166) (Homo sapiens, UniProt O43791); experiment: Competition fluorescence anisotropy, displacement of f-Puc from SPOP–MATH; assay type: binding; details: competition FA
# T1 construct: glutathione S-transferase (GST) (N, cleaved yes); 6X His (N, cleaved yes); made in house; host or cells: E. coli BL-21(DE3)
# Excerpt: An Escherichia coli codon-optimized DNA sequence encoding amino acids 205 to 283 of the human Pdx1 sequence (Pdx1-C) in the multiple cloning site of pET49b(+) was purchased from GeneArt (Thermo Fisher). The pET49b(+) backbone encodes for N-terminal glutathione S-transferase and 6X His tags, followed by a 3C protease recognition motif. In all experiments described herein, a mutant containing an exogenous tryptophan at the N terminus of the human Pdx1-C sequence was used for the purposes of quantitation. Mutations in Pdx1-C were generated by Q5 site-directed mutagenesis (New England Biolabs) with primers designed on NEBbasechanger.com according to the manufacturer protocol. Similarly, an E. coli–optimized DNA sequence encoding residues 28 to 166 of human SPOP (SPOP–MATH) was purchased in pET49b(+) from GeneArt. […] A plasmid encoding His–SUMO–SPOP human residues 28 to 359 harboring a tobacco etch virus protease recognition site directly N terminal to the beginning of the native SPOP protein sequence was generated previously ([21]).
# All FA experiments were conducted in 50 mM sodium phosphate, pH 6.5, 50 mM sodium chloride, 5 mM DTT, 1% BSA, and 0.01% Triton X-100. In all experiments, the source of fluorescence signal was f-Puc purchased from GenScript, at a final concentration of 40 nM. For direct FA measurements, SPOP–MATH or SPOP28–359 of concentrations between 0.001 and 300 μM was added to wells of 96- or 384-well plates containing f-Puc and buffer. For competition-mode experiments, serial dilutions of each competitor (Pdx1 peptide or recombinant protein) were prepared ranging from ∼0.01 μM to ∼2 mM (concentration range varied based on peptide solubility) in wells of 96- or 384-well plates containing 40 nM f-Puc and 6 μM SPOP–MATH or SPOP28–359. The fluorescence polarization of each well was measured (from which FA was calculated) using either a TECAN Infinite M1000 Pro or BioTek Synergy 4 fluorometer. All experiments were performed with at least three technical replicates. FA data points were fit to a complete competitive binding model ([23]) to determine dissociation constants using in-house Python scripts (see Quantification and statistical analysis).
# All titrations were performed in triplicate for rigor. Direct FA titrations were performed to determine the dissociation constants of the fluorescent probe toward SPOP constructs. Direct titration data were fit according to equation 6 in ([54]). Competition mode titration data were fit according to the fitting function in ([23]). Average dissociation constants and standard error from the mean for all constructs from competition experiments may be found in Table S4. The python scripts used in plotting and fitting may be found at https://github.com/idpemery/spop-pdx1.
# SPOP28–359 = target: T2, SPOP28–359 (Homo sapiens, UniProt O43791); experiment: Competition fluorescence anisotropy, displacement of f-Puc from oligomeric SPOP28–359; assay type: binding; details: competition FA; 40 nM f-Puc, 6 μM SPOP28–359; 50 mM sodium phosphate pH 6.5, 50 mM NaCl, 5 mM DTT, 1% BSA, 0.01% Triton X-100; complete competitive binding model; ± standard deviation of three independent replicates (Table S4)
# T2 construct: A plasmid encoding His–SUMO–SPOP human residues 28 to 359; His-SUMO (N, cleaved yes); made in house; host or cells: E. coli Rosetta BL-21(DE3)
# Excerpt: An Escherichia coli codon-optimized DNA sequence encoding amino acids 205 to 283 of the human Pdx1 sequence (Pdx1-C) in the multiple cloning site of pET49b(+) was purchased from GeneArt (Thermo Fisher). The pET49b(+) backbone encodes for N-terminal glutathione S-transferase and 6X His tags, followed by a 3C protease recognition motif. In all experiments described herein, a mutant containing an exogenous tryptophan at the N terminus of the human Pdx1-C sequence was used for the purposes of quantitation. Mutations in Pdx1-C were generated by Q5 site-directed mutagenesis (New England Biolabs) with primers designed on NEBbasechanger.com according to the manufacturer protocol. […]
# All FA experiments were conducted in 50 mM sodium phosphate, pH 6.5, 50 mM sodium chloride, 5 mM DTT, 1% BSA, and 0.01% Triton X-100. In all experiments, the source of fluorescence signal was f-Puc purchased from GenScript, at a final concentration of 40 nM. […] The fluorescence polarization of each well was measured (from which FA was calculated) using either a TECAN Infinite M1000 Pro or BioTek Synergy 4 fluorometer. […] FA data points were fit to a complete competitive binding model ([23]) to determine dissociation constants using in-house Python scripts (see Quantification and statistical analysis). […]
# [2] = target: f-Puc, fluorescein-labeled peptide of the SPOP substrate Puc (residues 91-106); experiment: fluorescence polarisation; direct fluorescence anisotropy titration: SPOP construct (0.001-300 μM) added to 40 nM f-Puc; 50 mM sodium phosphate pH 6.5, 50 mM NaCl, 5 mM DTT, 1% BSA, 0.01% Triton X-100
# [3] = target: f-Puc (fluorescein-labeled Puc peptide); experiment: fluorescence polarisation; direct fluorescence anisotropy: SPOP construct 0.001-300 μM added to 40 nM f-Puc; 50 mM sodium phosphate pH 6.5, 50 mM NaCl, 5 mM DTT, 1% BSA, 0.01% Triton X-100
# [4] = system: SPOP–MATH substrate-binding groove; experiment: 1H,15N HSQC NMR titration of 15N–SPOP–MATH with Pdx1 peptides; parameters: species or system human
# Method: (§1) NMR data collection and analysis
# (§2) NMR data were collected on Bruker Avance III 500, 600, or 850 MHz spectrometers equipped with TCI triple-resonance cryoprobes. All data collection and initial processing were carried out in TopSpin (Bruker). NMR experiments on all proteins were collected in 50 mM sodium phosphate, pH 6.5, 50 mM sodium chloride, 5 mM DTT, 0.01% sodium azide, and 5% D2O unless otherwise noted.
# Addition of Pdx1 peptides into ^15N–SPOP–MATH was monitored by sensitivity-enhanced ^1H, ^15N HSQC. The peptides were mixed in a 4:1 peptide:SPOP mole ratio with between 0.1 and 0.2 mM ^15N–SPOP–MATH. Each experiment consisted of 16 scans and 2048 × 256 complex data points. Spectral comparison was carried out in NMRFAM-Sparky using the assigned ^15N-SPOP-MATH spectrum as a reference. Integrated peak intensities before and after the addition of peptide were compared and normalized within each dataset, and the percent change (1 − Ibound/Iunbound) was plotted on the surface of published SPOP–MATH cocrystal structures (PDB IDs: 3IVV or 6F8F) ([25], [33]) using PyMol (PyMOL Molecular Graphics System, Version 2.1.1, Schrödinger, LLC). In each case, surface coloring corresponds to thresholds of intensity change, where the greatest resonance intensity changes are reflected by the lightest color. […]
# [5] = target: T3, SPOP-MATH (human SPOP residues 28-166) (human, UniProt O43791 28-166); experiment: fluorescence polarisation; competition fluorescence anisotropy: competitor (~0.01 μM to ~2 mM) displaces 40 nM f-Puc from 6 μM SPOP-MATH or SPOP28-359; complete competitive binding fit; 50 mM sodium phosphate pH 6.5, 50 mM NaCl, 5 mM DTT, 1% BSA, 0.01% Triton X-100; details: both partners purified
# T3 construct: N-terminal Gly-Pro-Gly cloning artefact left after 3C protease; speckle-type POZ protein (SPOP), human, MATH domain, residues 28-166; uniformly 15N-labelled for the NMR experiments; also called 15N-SPOP-MATH; source: E. coli BL-21(DE3), purified (Ni-NTA, 3C protease, second Ni-NTA, Sephacryl S100); not shown: GST, N-terminal, cleaved; His6, N-terminal, cleaved
# [6] = target: T4, SPOP28-359 (human SPOP residues 28-359) (human, UniProt O43791 28-359); experiment: as above; details: both partners purified
# T4 construct: also called oligomeric SPOP; source: E. coli Rosetta BL-21(DE3), purified (Ni-NTA, TEV protease, second Ni-NTA, Superdex 200); not shown: His, N-terminal, cleaved; SUMO, N-terminal, cleaved
# [7] = target: T1, SPOP–MATH (residues 28–166); experiment: (HACA)CON NMR of 13C,15N–Pdx1-C with SPOP–MATH; assay type: binding; details: 13C direct-detect (HACA)CON, 500 MHz, 25 °C, pH 6.5
# Method: as §1, §2
# Addition of SPOP–MATH into ^13C, ^15N–Pdx1-C was monitored by ^13C direct-detect (HACA)CON experiments ([44]) consisting of 16 scans and 1024 × 128 complex data points. SPOP–MATH was added to ^13C, ^15N–Pdx1-C such that the final concentrations were 0.35 mM and 0.37 mM, respectively. Peaks from each spectrum were integrated and used to calculate a percent intensity change in Pdx1-C resonances after binding of SPOP–MATH. SPOP28–359 was added to ^13C, ^15N–Pdx1-C at a 4-fold molar excess and detected by HSQC or (HACA)CON. Line broadening precluded residue-specific analysis of SPOP28–359 and Pdx1-C.
# [8] = target: T5, SPOP_(28–359) (human SPOP residues 28–359) (human, UniProt O43791 28-359); experiment: fluorescence polarisation; competition fluorescence anisotropy: competitor against 40 nM f-Puc and 6 μM SPOP_(28–359); 50 mM sodium phosphate pH 6.5, 50 mM NaCl, 5 mM DTT, 1% BSA, 0.01% Triton X-100; complete competitive binding fit; details: both partners purified
# T5 construct: also called His–SUMO–SPOP (before cleavage); source: E. coli Rosetta BL-21(DE3), purified (Ni-NTA, TEV protease, second Ni-NTA, Superdex 200); not shown: His, N-terminal, cleaved; SUMO, N-terminal, cleaved
# [9] = target: T6, SPOP–MATH (human SPOP residues 28–166) (human, UniProt O43791 28-166); experiment: fluorescence polarisation; competition fluorescence anisotropy: competitor ~0.01 μM to ~2 mM against 40 nM f-Puc and 6 μM SPOP–MATH; 50 mM sodium phosphate pH 6.5, 50 mM NaCl, 5 mM DTT, 1% BSA, 0.01% Triton X-100; complete competitive binding fit; details: both partners purified
# T6 construct: N-terminal Gly–Pro–Gly cloning artifact left after 3C protease; speckle-type POZ protein (SPOP), human, MATH domain, residues 28-166; Uniformly 15N (or 13C,15N) enriched for the NMR experiments in which it is the observed protein; also called monomeric SPOP–MATH; ^15N–SPOP–MATH; source: E. coli BL-21(DE3), purified (Ni-NTA, 3C protease, second Ni-NTA, Sephacryl S100 gel filtration); not shown: …
# T6 sequence (O43791 other isoform, or with tags, fused parts or gaps): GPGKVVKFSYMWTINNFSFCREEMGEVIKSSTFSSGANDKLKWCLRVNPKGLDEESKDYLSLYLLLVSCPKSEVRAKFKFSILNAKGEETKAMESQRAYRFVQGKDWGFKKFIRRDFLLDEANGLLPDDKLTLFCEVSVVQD
# T1 sequence (O43791 28-166): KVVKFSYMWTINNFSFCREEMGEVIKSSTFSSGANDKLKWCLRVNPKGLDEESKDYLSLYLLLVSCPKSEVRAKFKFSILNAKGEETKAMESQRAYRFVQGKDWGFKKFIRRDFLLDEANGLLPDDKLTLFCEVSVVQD
# T3 sequence (O43791 other isoform, or with tags, fused parts or gaps): as the sequence (O43791 other isoform, or with tags, fused parts or gaps) above
# T4 sequence (O43791 28-359): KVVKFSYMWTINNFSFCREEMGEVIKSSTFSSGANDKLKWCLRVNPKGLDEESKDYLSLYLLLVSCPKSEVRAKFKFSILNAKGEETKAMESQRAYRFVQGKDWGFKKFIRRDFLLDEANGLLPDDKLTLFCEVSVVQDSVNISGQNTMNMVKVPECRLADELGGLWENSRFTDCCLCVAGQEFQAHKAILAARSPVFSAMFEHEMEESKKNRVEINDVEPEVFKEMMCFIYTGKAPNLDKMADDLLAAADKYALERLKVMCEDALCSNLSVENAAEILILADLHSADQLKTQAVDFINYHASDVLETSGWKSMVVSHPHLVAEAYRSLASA
# T2 sequence (O43791 28-359): as above
# T5 sequence (O43791 28-359): as above
molecule,measurement,setting,value
"ENLACDEVTSTTSSST [Puc, reference compound]",Kd,"[1]; 40 nM f-Puc, 6 μM SPOP–MATH, 50 mM sodium phosphate pH 6.5, 50 mM NaCl, 5 mM DTT, 1% BSA, 0.01% Triton X-100, complete competitive binding model, ± standard deviation of three independent replicates (Table S4)",2600 ± 400 nM
same,Kd,SPOP28–359,2600 ± 1000 nM
SPOP28-359 (human SPOP residues 28-359) (from UniProt O43791 28-359) (domain or fragment),Kd,[2],2550 nM and 2620 nM
SPOP-MATH (human SPOP residues 28-166) (from UniProt O43791 28-166) (domain or fragment),Kd,[2],2620 nM and 2550 nM
SPOP–MATH (human SPOP residues 28–166) (from UniProt O43791 28-166) (domain or fragment),Kd,[3],2600 nM
"Ac-GVAEPEQDCAVTSGEELLALPP [Pdx1–SBM1, SB motif 1 peptide of Pdx1 (residues 224–236)]",relative SB affinity from mixed-peptide NMR,[4]; SBM1 and SBM2 peptides added to 15N-SPOP-MATH in equimolar ratios,higher SB affinity of Pdx1–SBM1 than Pdx1–SBM2
same,HSQC spectral changes in SPOP–MATH,"[4]; peptide:15N-SPOP–MATH 4:1, 0.1–0.2 mM 15N–SPOP–MATH, 50 mM sodium phosphate pH 6.5, 50 mM NaCl, 5 mM DTT",spectral changes are primarily localized to the substrate-binding groove
B1,Kd,[5],2600 nM
same,Kd,[6],2600 nM
B2,Kd,[5],32000 nM
same,Kd,[6],3500 nM
B3,"apparent affinity for SPOP–MATH, in words",[1]; Fig. 5 and Table S4,higher apparent affinity for SPOP–MATH than the strongest individual SB motif alone
same,resonance intensity loss in Pdx1-C on addition of SPOP-MATH,[7],marked resonance intensity loss in two specific locations: amino acids 220 to 235 (highlighted in teal) and amino acids 265 to 275
B4,fold enhancement in binding affinity compared with SPOP–MATH,[8],~10 fold
B5,Kd,[9],140000 nM
